Laboratory results as given in the Human Domainome abundance scans (Beltran et al. 2025).
± gives the uncertainty stated by the source.

test: abundance fitness (aPCA) (normalised: wild type 0, dead -1); higher = more abundant; growth selection in yeast, the domain comes from the species named; details: Homo sapiens

“E3 ubiquitin-protein ligase NEDD4 N853D, P46934” and “E3 ubiquitin-protein ligase NEDD4 H850V, P46934” are within error of each other in abundance fitness: -0.116 ± 0.071 for the first, -0.155 ± 0.055 for the second.

“E3 ubiquitin-protein ligase NEDD4 A851D, P46934” and “E3 ubiquitin-protein ligase NEDD4 F857Y, P46934” are within error of each other in abundance fitness: -0.043 ± 0.04 for the first, 0.013 ± 0.048 for the second.

First: E3 ubiquitin-protein ligase NEDD4 K844D, P46934
Second: E3 ubiquitin-protein ligase NEDD4 T863Q, P46934
The abundance fitness of the first is higher: -0.053 ± 0.031 for the first, -0.511 ± 0.1 for the second.

“E3 ubiquitin-protein ligase NEDD4 V848I, P46934” and “E3 ubiquitin-protein ligase NEDD4 P852S, P46934” are within error of each other in abundance fitness: -0.103 ± 0.075 for the first, -0.058 ± 0.055 for the second.

“E3 ubiquitin-protein ligase NEDD4 R849K, P46934” and “E3 ubiquitin-protein ligase NEDD4 I859V, P46934” are within error of each other in abundance fitness: 0.052 ± 0.062 for the first, -0.074 ± 0.065 for the second.

“E3 ubiquitin-protein ligase NEDD4 K864R, P46934” and “E3 ubiquitin-protein ligase NEDD4 E869I, P46934” are within error of each other in abundance fitness: -0.042 ± 0.053 for the first, -0.137 ± 0.071 for the second.
